Assay results published in publication PMC2896262 (Structure (London, England : 1993), 2009).

T1: soNrtR (Shewanella oneidensis, UniProt Q8EFJ3 1-237)
T1 sequence: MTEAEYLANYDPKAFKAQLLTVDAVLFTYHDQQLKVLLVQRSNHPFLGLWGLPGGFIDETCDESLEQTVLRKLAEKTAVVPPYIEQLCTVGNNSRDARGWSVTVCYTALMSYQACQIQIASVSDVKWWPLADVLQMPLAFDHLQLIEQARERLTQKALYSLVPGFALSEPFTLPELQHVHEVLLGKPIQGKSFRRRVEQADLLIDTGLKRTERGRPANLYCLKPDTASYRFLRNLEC

B1: N-terminal domain of soNrtR (residues 1-159) (domain or fragment, Shewanella oneidensis, UniProt Q8EFJ3 1-159, looked up)
chain: MTEAEYLANYDPKAFKAQLLTVDAVLFTYHDQQLKVLLVQRSNHPFLGLWGLPGGFIDETCDESLEQTVLRKLAEKTAVVPPYIEQLCTVGNNSRDARGWSVTVCYTALMSYQACQIQIASVSDVKWWPLADVLQMPLAFDHLQLIEQARERLTQKALY
B2: 28-nt NrtR-box DNA (dsDNA)
DNA 1: CGTAATAGTGTCTTAAAGACACTATTAC
DNA 2: CGTAATAGTGTCTTTAAGACACTATTAC

Columns and labels:
crystal structure = target: the molecule itself; experiment: crystal structure
soNrtR = target: T1, soNrtR; experiment: X-ray crystal structure

| Binder | stoichiometry N (crystal structure) | binding result (soNrtR) |
| --- | --- | --- |
| B1 | 2 |  |
| B2 |  | binds |
